No end group written: not given here.
T1: Recombinant LRP1 (Cluster II) (UniProt Q07954 805-1184, limits assumed)
T1 construct: domain: Cluster II; Coated on the ELISA plate
T1 sequence (looked up): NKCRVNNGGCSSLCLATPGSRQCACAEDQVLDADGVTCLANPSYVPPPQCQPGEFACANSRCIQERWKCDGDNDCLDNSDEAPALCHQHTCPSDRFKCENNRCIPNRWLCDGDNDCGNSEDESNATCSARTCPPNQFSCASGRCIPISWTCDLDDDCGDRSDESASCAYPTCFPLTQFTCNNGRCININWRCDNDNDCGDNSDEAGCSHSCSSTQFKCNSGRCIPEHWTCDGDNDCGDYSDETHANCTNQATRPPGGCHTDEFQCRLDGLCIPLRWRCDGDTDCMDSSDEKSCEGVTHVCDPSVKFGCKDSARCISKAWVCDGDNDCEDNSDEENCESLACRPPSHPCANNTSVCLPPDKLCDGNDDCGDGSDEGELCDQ

T2: recombinant LRP1-FC fusion protein (Cluster II) (UniProt Q07954 805-1184, limits assumed)
T2 construct: domain: Cluster II; Captured on protein G Dynabeads; not shown: Fc part
T2 sequence (looked up): T1 sequence (looked up)

B1: SP34 (Scrambled Core) (peptide)
peptide: FPKMVPQFNTELKIFPEVNIK
modifications: also: biotinylated in ELISA, site not given here, labelled with Cy5.5 in bead assay, site not given here
notes: Contains the amino acids found in SP16 in scrambled orientation; also called scrambled control; scrambled control SP34 peptide
B2: SP163M (peptide)
peptide: VKFNKPFVFLXIEQNTK
modifications: not fully specified; Norleucine (Nle) in place of the methionine (VKFNKPFVFL[Nle]IEQNTK); N-terminus acetylated; C-terminus amidated; biotinylated in the ELISA (Figure 3); labelled with Cy5.5 in the bead assay (Figure 4)

Columns and labels:
[1] = target: T1, Recombinant LRP1 (Cluster II); experiment: ELISA, plate-bound recombinant LRP1 (Cluster II), increasing concentrations of biotinylated peptide, streptavidin HRP
[2] = target: T2, recombinant LRP1-FC fusion protein …; experiment: Cy5.5-labelled peptide on LRP1-FC (Cluster II) protein G beads, flow cytometry
TMPRSS2 = TMPRSS2 (UniProt O15393 106-492, limits assumed); experiment: cell-based or functional assay
TMPRSS2, sequence (O15393 106-492 limits assumed): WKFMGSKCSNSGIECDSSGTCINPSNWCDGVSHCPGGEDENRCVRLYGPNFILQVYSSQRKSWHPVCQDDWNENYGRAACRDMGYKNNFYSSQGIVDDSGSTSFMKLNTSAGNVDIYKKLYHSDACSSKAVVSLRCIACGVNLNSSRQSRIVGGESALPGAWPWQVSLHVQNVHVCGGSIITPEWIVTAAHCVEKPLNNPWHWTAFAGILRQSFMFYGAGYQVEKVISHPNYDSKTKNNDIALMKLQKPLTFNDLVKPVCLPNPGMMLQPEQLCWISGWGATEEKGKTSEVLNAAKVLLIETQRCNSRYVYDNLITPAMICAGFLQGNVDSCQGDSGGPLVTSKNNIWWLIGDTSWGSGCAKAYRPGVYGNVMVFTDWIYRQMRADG

Binder	binding result [1]	binding result [2]	IC50 of inhibition of TMPRSS2 activity (TMPRSS2)
B1	no binding	no binding (tested: 1µg/ml)	
B2			1.12 µg/mL
VKFNKAAAAAAIEQNTK (not fully specified, also called SP16AALRP1 peptide) [SP16AALRP1]		no binding (tested: 1µg/ml)	

Source: patent publication EP4789728A2 (Serpin Pharma, LLC, dated 2026)
